Laboratory results from the supplement of paper PMC10126150.
± gives the standard deviation of the averaged measurements.

Test system: ATP
Assay: switch fluorescence ratio, 500 uM ATP over buffer (Cy3 cluster intensity, sum of 5 cycles each) (fold (ratio)); higher = stronger signal-on switching upon ATP binding; sequences stand for … in TCGTCGGCAGCGTCAGATGTGTATAAGAGACAGTTTTTTTTTTTTTTTTTTTTTTTTT…TC
Details: aptamer strand: ATP DNA aptamer (quencher-CACCTGGGGGAGTATTGCGGAGGAAGG + anchor), 100 nM annealed; ATP concentration: 500 uM
Method in brief: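 Values give the fluorescence ratio for each switch-domain sequence, averaged from per-cluster ratios of summed target-cycle to summed buffer-cycle Cy3 intensity. The Cy3-labelled switching-strand clusters sat on a modified Illumina MiSeq flow-cell, were annealed to 100 nM quencher-labelled ATP aptamer, and were imaged in selection buffer, then after 15 min with 500 uM ATP at 22 °C. Five cycles ran with NaOH stripping and re-annealing between them, and clusters outside 100-1000 RFU were excluded.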
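Further: ATP exposure 15 min at 22 °C before imaging.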

Sequence	switch fluorescence ratio
GGGCAGAAAT	1.01 ± 0.048
GGGCAGCGCA	0.99057 ± 0.00048
GGGCAGCTCT	0.958 ± 0.016
GGGCAGGCAC	0.993 ± 0.018
GGGCAGGGAG	1 ± 0.017
GGGCATATTC	1.155 ± 0.0089
GGGCATGCAT	1.019 ± 0.0086
GGGCATGGTG	1.05 ± 0.025
GGGCATGTAC	1.57 ± 0.15
GGGCATTTAG	1.03 ± 0.092
GGGCCAACGA	1.042 ± 0.0014
GGGCCAAGGA	1.01 ± 0.02
GGGCCCATA	0.982 ± 0.028
GGGCCCGCAA	5.05 ± 0.21
GGGCCCGGTT	1.005 ± 0.0068
GGGCCCTTAC	1.11 ± 0.06
GGGCCGCGCT	0.942 ± 0.039
GGGCCGGTTG	0.995 ± 0.017
GGGCCTGGAG	1.012 ± 0.0086
GGGCGAAATG	1.32 ± 0.28
GGGCGCAAGG	1.02 ± 0.029
GGGCGCCATC	1.01 ± 0.016
GGGCGCGGTG	1.06 ± 0.081
GGGCGCTTCT	0.9913 ± 0.0072
GGGCGGATGG	0.986 ± 0.018

Sequence	switch fluorescence ratio
GGGCGGCGGC	0.988 ± 0.0099
GGGCGGCTGC	0.955 ± 0.03
GGGCGGCTGT	1 ± 0.033
GGGCGGGGGA	1.06 ± 0.079
GGGCGGTATA	0.986 ± 0.025
GGGCGGTCGG	1 ± 0.03
GGGCGTAAAA	1.07 ± 0.023
GGGCGTCGGT	0.984 ± 0.015
GGGCGTTTTT	0.992 ± 0.017
GGGCTAAAAC	0.971 ± 0.035
GGGCTATGTA	0.993 ± 0.0095
GGGCTGAGGG	0.988 ± 0.029
GGGCTGTTGC	1.08 ± 0.13
GGGCTTATGA	1.018 ± 0.0044
GGGCTTGAAG	1.01 ± 0.017
GGGCTTGTAT	1.03 ± 0.014
GGGCTTGTCC	0.98 ± 0.043
GGGCTTTACG	1.01 ± 0.011
GGGCTTTATG	0.986 ± 0.023
GGGCTTTTCG	0.992 ± 0.024
GGGGAAACGA	0.9987 ± 0.0015
GGGGAAAGAG	1 ± 0.017
GGGGAAAGCG	1 ± 0.026
GGGGAAATTA	1.02 ± 0.012
GGGGAACGGT	1.03 ± 0.012

Sequence	switch fluorescence ratio
GGGGAAGAAG	0.969 ± 0.02
GGGGAAGCCT	1.07 ± 0.03
GGGGAAGCGG	0.991 ± 0.056
GGGGAAGGGG	1.03 ± 0.058
GGGGAAGTTT	0.998 ± 0.027
GGGGAATTTG	1.01 ± 0.041
GGGGACAATG	1.02 ± 0.044
GGGGACACGG	1.03 ± 0.016
GGGGACAGAT	0.991 ± 0.017
GGGGACGAGC	0.999 ± 0.027
GGGGACGATG	0.996 ± 0.019
GGGGACGTAC	1.47 ± 0.22
GGGGACGTAT	1.01 ± 0.019
GGGGACGTTT	1.03 ± 0.043
GGGGACTAGG	0.982 ± 0.058
GGGGACTAGT	0.957 ± 0.043
GGGGACTGCA	1.03 ± 0.049
GGGGAGAAAC	1.08 ± 0.042
GGGGAGAACT	0.992 ± 0.016
GGGGAGAAGA	0.9662 ± 0.005
GGGGAGACGA	1.04 ± 0.022
GGGGAGAGAC	1.04 ± 0.041
GGGGAGCCGT	1.03 ± 0.086
GGGGAGGAAG	0.997 ± 0.012
GGGGAGGCCC	0.998 ± 0.031

Sequence	switch fluorescence ratio
GGGGAGGGAC	1.02 ± 0.053
GGGGAGGGCC	1.01 ± 0.032
GGGGAGGGCG	0.967 ± 0.034
GGGGAGGTAA	0.973 ± 0.012
GGGGAGTGAG	0.986 ± 0.017
GGGGAGTTAT	1.01 ± 0.0024
GGGGATAAAA	1.01 ± 0.034
GGGGATACGT	1 ± 0.021
GGGGATCCCC	1.03 ± 0.019
GGGGATGGCT	0.992 ± 0.039
GGGGATGGTG	1 ± 0.035
GGGGATGGTT	0.974 ± 0.03
GGGGATTAAG	0.971 ± 0.033
GGGGATTATA	1.01 ± 0.015
GGGGATTTGA	0.995 ± 0.029
GGGGATTTGG	0.992 ± 0.018
GGGGCAAAAA	1.08 ± 0.12
GGGGCAACGT	0.983 ± 0.012
GGGGCAATTT	1.04 ± 0.052
GGGGCACCTC	1.04 ± 0.015
GGGGCAGCCA	1.03 ± 0.038
GGGGCAGGCT	0.886 ± 0.18
GGGGCAGGTA	1.04 ± 0.047
GGGGCATGCA	0.9897 ± 0.0081
GGGGCATGGA	0.95 ± 0.018

Sequence	switch fluorescence ratio
GGGGCATGGT	1.01 ± 0.018
GGGGCCAAAA	0.947 ± 0.11
GGGGCCAGAA	1.012 ± 0.0029
GGGGCCCCTC	1.04 ± 0.092
GGGGCCGAGA	0.987 ± 0.012
GGGGCCGTTG	0.949 ± 0.012
GGGGCGGGGT	1.01 ± 0.018
GGGGCGGGTA	1 ± 0.078
GGGGCGGTGG	1.036 ± 0.0062
GGGGCGGTTT	1.01 ± 0.046
GGGGCGTAGG	1 ± 0.033
GGGGCGTGTG	1.01 ± 0.014
GGGGCTATAA	1.11 ± 0.067
GGGGCTATCC	1.01 ± 0.036
GGGGCTCACG	0.985 ± 0.029
GGGGCTTATT	0.975 ± 0.029
GGGGCTTTTG	0.98 ± 0.04
GGGGGAAAAA	0.998 ± 0.059
GGGGGAAATA	0.9815 ± 0.0055
GGGGGAAATG	0.994 ± 0.029
GGGGGAAATT	1.03 ± 0.015
GGGGGAACCA	0.9993 ± 0.0072
GGGGGAATCA	0.9748 ± 0.0039
GGGGGACTAT	1.03 ± 0.023
GGGGGACTTT	1.08 ± 0.08

Sequence	switch fluorescence ratio
GGGGGAGAAT	0.986 ± 0.025
GGGGGAGAGC	1.03 ± 0.043
GGGGGAGATA	1 ± 0.025
GGGGGAGATT	0.977 ± 0.02
GGGGGAGCGA	0.98 ± 0.059
GGGGGAGCTG	0.978 ± 0.019
GGGGGAGGAG	0.996 ± 0.013
GGGGGAGTTG	0.982 ± 0.044
GGGGGATAAG	1 ± 0.028
GGGGGATAGA	1.03 ± 0.034
GGGGGATCTC	1.01 ± 0.021
GGGGGCAAAA	1.03 ± 0.025
GGGGGCAAAT	0.9935 ± 0.0068
GGGGGCAACG	1.03 ± 0.1
GGGGGCAACT	0.997 ± 0.017
GGGGGCAGCA	1.01 ± 0.04
GGGGGCATTT	1 ± 0.031
GGGGGCCATA	1.14 ± 0.18
GGGGGCCCGA	0.9925 ± 0.0076
GGGGGCCGCT	1.02 ± 0.036
GGGGGCCGGT	1.01 ± 0.058
GGGGGCCGTT	0.977 ± 0.058
GGGGGCCTTA	1.01 ± 0.047
GGGGGCGCAT	0.96 ± 0.066
GGGGGCGCGA	1.02 ± 0.035

Sequence	switch fluorescence ratio
GGGGGCGGAG	0.992 ± 0.024
GGGGGCGGAT	0.992 ± 0.024
GGGGGCGTTA	1.02 ± 0.026
GGGGGCTCTG	0.999 ± 0.028
GGGGGCTGTT	1 ± 0.014
GGGGGCTTTG	0.978 ± 0.023
GGGGGGACGT	1.02 ± 0.035
GGGGGGAGG	1.1 ± 0.13
GGGGGGAGGA	1.01 ± 0.056
GGGGGGATAC	1.7 ± 0.61
GGGGGGATCG	0.9791 ± 0.008
GGGGGGATCT	1.004 ± 0.0098
GGGGGGATGC	1.07 ± 0.13
GGGGGGATGT	0.993 ± 0.027
GGGGGGCACC	0.994 ± 0.021
GGGGGGCCGT	0.957 ± 0.025
GGGGGGCGCT	0.992 ± 0.018
GGGGGGCGGG	1.03 ± 0.051
GGGGGGCTGA	0.982 ± 0.018
GGGGGGGAAT	1 ± 0.045
GGGGGGGATC	1.02 ± 0.045
GGGGGGGCGT	0.996 ± 0.032
GGGGGGGG	0.994 ± 0.043
GGGGGGGGAC	1.02 ± 0.071
GGGGGGGGGG	1.02 ± 0.068

Sequence	switch fluorescence ratio
GGGGGGGTC	0.979 ± 0.019
GGGGGGGTCG	0.983 ± 0.048
GGGGGGGTG	1.04 ± 0.013
GGGGGGGTGC	1.02 ± 0.049
GGGGGGTAAC	1 ± 0.019
GGGGGGTCGT	1 ± 0.05
GGGGGGTCTT	1.01 ± 0.025
GGGGGGTT	0.9904 ± 0.005
GGGGGGTTAC	1.42 ± 1
GGGGGGTTAG	0.991 ± 0.029
GGGGGGTTCC	1.02 ± 0.044
GGGGGTACTG	0.965 ± 0.028
GGGGGTAGAG	0.988 ± 0.015
GGGGGTAGGA	1.02 ± 0.038
GGGGGTAGGT	0.985 ± 0.036
GGGGGTATCG	0.967 ± 0.021
GGGGGTCACT	0.993 ± 0.026
GGGGGTCGAC	0.996 ± 0.043
GGGGGTCTTA	0.9974 ± 0.0063
GGGGGTGCTG	0.993 ± 0.025
GGGGGTGCTT	1.03 ± 0.056
GGGGGTGTCT	0.99 ± 0.034
GGGGGTTACC	0.988 ± 0.02
GGGGGTTCTT	1.01 ± 0.049
GGGGGTTGAA	1 ± 0.029
